Reference: the supplement of paper PMC12764529
± gives the half width of the 95% confidence interval.

Assay: folding stability dG unfold (combined trypsin and chymotrypsin); higher = more stable
Experimental: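 Folding stability of de novo designed mini-proteins (<80 aa, no Cys; designed by TrROS, TrMRF, ProteinMPNN and the joint model) was measured by cDNA display proteolysis with trypsin and chymotrypsin. Each protease was used at 11 concentrations in a threefold dilution series plus a no-protease condition. K50 was inferred by Bayesian fitting of sequencing counts, and dG unfold was derived against a sequence-predicted unfolded-state K50 (Tsuboyama et al. method). Sequences shown include variable-length N-terminal GS-type padding (SAGGSAGG...) inside a display construct carrying a PA tag. Rows were kept only if the AF2 dimer inter-PAE was >15, to exclude likely homo-oligomers.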

Folding stability dG unfold, < -1 kcal/mol:
SAGGSAGGSAGGDLEIHIPPGMDPAQADNFAKMFGLKNIKIEPVPPVKPRVYTKNGEPDSAGGSAGGSAGGS [r10_1083_TrROS], SAGGSAGGSAGGSPPSLDYSVRTITTTVEETTFFPDNGTVRSRPVHVTTVVFEPLDSVESAGGSAGGSAGGS [r10_133_JUSTAS], SAGGSAGGSGAFTADNDGGKVYSARLVPLPPGDRPVAVGLDVPVDKPVLVAVLPDRTVVVPLGSAGGSAGGS [r12_994_TrMRF], SAGGPKIEVDVKHQRTPDGMYRMRVTAVVPGNGRKIKITMPMPPDDPSPMPKMAKSIAKELANDPGLKSAGG [r13_968_TrROS], SAGGSAGGSANKDDKKKEQRKQRVESKLPIYDPGNGKPWDIEVTGPVDDPEDAVDWLLDWFSAGGSAGGSAG [r3_271_TrROS], SAGGSAGGSASPVQRILARLPSGEPFEAVYDPSTGTIDVLGEGKPSTIPAGTPVEVLEVRLESAGGSAGGSA [r18_144_JUSTAS], SAGGPGYWRIKIYPKDTGKPHEFPIPLDQIRKVDPKNNKIEISFPNGPTIKIPDPEDIKAVQIEPWPSAGGS [r8_111_TrROS], SAGGSAGGSAGGSSVEEEFLAYAKANPEPAPFEFEGPDEKVLLYFPPGGEIDPVSIELKSAGGSAGGSAGGS [r4_438_JUSTAS], EPNYLVQIEIEPRMYQKDEDGKPLKPQPMKQPFFGPADDPEQVKDNLRDNFGPEVEIDEVMPLEDINEGQFS [r1_493_TrROS], SAGPEPIKIKILKMQPNPNGTPMIRVKVVPPDGKPGEIPIPQEMLKEGNLDDMTIDDIAEEFPGLKPVSAGG [r19_74_TrROS], SAGGSAGGSAGEPIPFRIKVELPGNGREQEIDFPIKTPSEANEIANQLPPGFKRVKIEWYSAGGSAGGSAGG [r11_25_TrROS], SAGGGPEVVETVETPATETEVSRLPNGELLVTTTTQVTTFVRVGDELRRERVETVTTTEIVSPEELGSAGGS [r16_109_JUSTAS], SAGGSAGGSAGSTVKITVKGKTITVPKGAKVKLKNGKTFKAGESLESLSPEEIVKVEKVPSAGGSAGGSAGG [r17_511_TrROS_Hall], SAGGSAGGMELVTLPVVTTEEVPVPPVTKTLPNGTRETVPQPPVTVVRETVLLTTPEEAAALLRSAGGSAGG [r6_120_JUSTAS], SAGGLTITVTPSVSENEVVVPGTGKPRFPEPRETYTVTVTPAPDVSLEEVAAEIREKFPGRGYTLTPSAGGS [r8_30_JUSTAS], SAGGSAGGSAGMTLEELQKEGYKVEVIRYPDSPHWYVEIEYPDPDGKKKERTIPVDDIKPSAGGSAGGSAGG [r17_311_TrROS], SAGQIRIEIEPNPNGKPKIRITMHNPDGPPREREIPIDPGETVSDIADEFFENGMPIRPGSTIEDLIESAGG [r19_263_TrROS], SAGGSAGGSAGGQIRDPDGRKWIRVKGASPNKIKDELSELNPNVEIITNPDPNEMWIRIPSAGGSAGGSAGG [r7_370_TrROS], SAGGSAGGSAGGSMKIYVTSPEEAKKEKEKILEELKKTNIPPKVKVEVKVIPKSEIPLESAGGSAGGSAGGS [r4_472_JUSTAS], SAGGSAGGSAGMEIKPVKVKAIDPENPKPVAEFEVEVLPDKIIIPKEFAEKVPEDHVEVESAGGSAGGSAGG [r11_725_TrMRF], SAGGIMFDSPEEAEELADNGRIKPVNRGKQKHKDNGKEREHEMYMVKIKDPEDNKPVQVMIPADQIRSAGGS [r16_271_TrROS], SAGGSAGGSAGGSKKKFKVKVIEKKPTTFPDGGVLVDYKVEIPETGALFDLKLTYTGEASAGGSAGGSAGGS [r4_94_TrMRF], SAGGSAGGSVKDKNGTPYSVKEAKEKKLPNGTLVIELTLPESGKKITIPKKDIPKGISSEAKLKSAGGSAGG [r6_371_JUSTAS], SAGGDWIPFRIKQYDPKDGKPKREWPIQYNPEDGMMQIRPPDGKKHEFPMPMQEILENLPPGFEIEPSAGGS [r16_543_TrROS], SAGGSAGGSPVDEIIEEIKKKGYKANVKSVSVSPNSKGELEIELEINIEKPEPKGTEENIKKKSAGGSAGGS [r12_120_JUSTAS], SAGGSAGGSAGNMEPVPTFELPHDDGRPFTIEVYKDPPMIRVEFPGKPRTMPAEEIKKLISAGGSAGGSAGG [r11_370_TrROS], SAGSFSVRLTLRAPDGTTETVSGPAAVAAAIAALPADETAESSVPGSSSSSTVTLPAGGTFSLSTLSSSSAG [r5_506_JUSTAS], SAGGMRIPLKQIKDVNHQPPPGNGYPMVTVKVRDGGKPHTHTIPNNMNWEEAKRMVEEALDEGPIEIESAGG [r13_225_TrROS], SAGGSAGGSARVTVTPLPDDRVAVSVERTLYRRDADGNPLGPVRIQASVVVDSLEDAAELASAGGSAGGSAG [r3_232_TrMRF], SAGPFYVRMKIEVPRKTYDPEDGEPKQEKREIDIWFPMKSEEQARDHADKLAEELPPENVKITDIEPFSAGG [r19_209_TrROS], SAGGSAGGSEPVPLKVKARFGDPGEEFEADIDIPKEALEGEALTPEQIKEALEALFPDVEIEGSAGGSAGGS [r20_221_TrMRF], SAGGSAGGSAGGPEWKEIDIPFDTPEDAIDEAEDKLPPDDKIDVHNPDDGQPITFTVPRNSAGGSAGGSAGG [r7_877_TrROS], SAGGSAGGSAGGFVGTLKDYPKILKAAKEVGLKVGKIDPKNNKIYVDPSNPEKLKKAIESSAGGSAGGSAGG [r7_285_TrMRF], SAGGSKVPLDDFDKVTIGVDPKTGKTTASIYYPSDGSTVTFPGKEIPEVLASNPNIKTVETEPLPGSAGGSA [r2_159_JUSTAS], SAGGSAGGSAGMSTTIEITDPNLSKEEIKKRIREELGPDVKVTSITEETPDTLKATIVKKSAGGSAGGSAGG [r11_580_JUSTAS], SAGGDKKKKEVEFRFPGMPFRVSIQVDPDEGKIPIEIYNPDNGQSLDDLKSNPAMQQMVREAANALKSAGGS [r16_96_TrROS], SAGGPMWQVRLRDPDGKKRTINIQQTNGNMYVRIQDKDGEPVKEHPVDSAEEALDKLEDHGYKVEVYPSAGG [r13_315_TrROS], SAMPPGAIVKVKIISKERRIDNELGVEVVGYTEKEEDVKVLEVKEPGEKVELKLEIPNLPEGSELELGFSAG [r14_412_TrMRF], SAGGSAGGSAGDLPPGKEIEIMMSTPEWADEFADNFPNAKIKIEPMPPKPKYDPETGKGYSAGGSAGGSAGG [r17_126_TrROS], SAGGSAGGSAGGPELGEIEPGPDGYLYVNLKVELPVELPGPDGKGTGPVEGTVRLKVGLSAGGSAGGSAGGS [r10_92_TrMRF], SAGGNKTREREIPIPPGDSPDQAVDRVLEELEKHPDNNNVNINFRHPNGMPIKIRVTPNGKITEVEPYSAGG [r13_690_TrROS], SAGGSADMPMLPIEEIIDQLKEAKEANPNKKRTIEIPYPDGMPMQIEIDNDGKTKIEHPDGQWITISAGGSA [r15_73_TrROS], SAGGSAGGSAGGSMTVTVEPVPNSDKLRVTTTTTFLNPSNGQVTSTSTSTTVVPPGVAPSAGGSAGGSAGGS [r10_86_JUSTAS], SAGGPMPPGQPVNIHIEIENPNGNERTIPVPGPVGDPDWFKEIAEKLKEEGWKIKKIHPGNGVIEIKSAGGS [r8_497_TrROS], SAGGSAGGSAGGDNIMIKIRNPGKPRTFMIKDPEQLKNMSLKELADELVDKHGWPVEIYPSAGGSAGGSAGG [r7_259_TrROS], SAGGSAGGSALKINKLLKEGYEVEVTPPDGKKYVLKKGDSAKKPKEKFNLPENAKIKIKPLSAGGSAGGSAG [r3_216_TrMRF], SAGMKPGEPIMTIKIKVKDPDNGKEVPINIPVRYQYDNGEPKRPISPDDALEEAKDLADRLKKDPNIKISAG [r5_426_TrROS], SAGGSAGGSAMEEYEIRVPDKPITIHRSPDGNYSLQYFDNKKTETIPADDLDDLPPGDLFRSAGGSAGGSAG [r3_256_TrROS], SAGGGSKIIEVPVIVEPDEDLGKVAEEIAKKIFPENEKVIVKVEKFENSYRIEIFNPEDGKPIIEGEGSAGG [r13_724_TrMRF], SMTYTVTKESSVSPLPDGSPVTSTTTTVTAPTEPVTVTTSTSVTPLSTGTSTTTSTTTTTVPPDDPLAASSA [r9_34_JUSTAS], SAGGSAGGSAGGSMVVPASEVEEYVERRKRETGDRFEVTPIPEEGVTPVRLEPADPALESAGGSAGGSAGGS [r4_419_JUSTAS], SAGMTIPVTSPEEARQVAEELAPEVGKEVTIEEAPPSVSTDNLPSNAIVLVNPDSGVRYVATIKEPDHHSAG [r5_173_JUSTAS], SAGGMPPSFVVEEEKTVEGTSTVTLRKITNPSSSEDMLSEIVTPPDGSVTLILKKDNIIEVIPSSELSAGGS [r16_49_JUSTAS], SAGGSAGGSAGMPVTESTVTTPTGGLRVTYFPGTNLIELLPVEDGEPRPRLFNSEEALERLSAGGSAGGSAG [r3_426_JUSTAS], SAGGSAGGSAGGPIKVETEPYPDGYHRVEIMLPGNGQKKEIHFPNGQTPEQAKDWIKEWSAGGSAGGSAGGS [r10_825_TrROS], SAGGSTYTVTRTEELPDGTVRAELTVTLDGAPVPATGTTETAPGGRRRVTVTFPSDPSLSLTTPEESAGGSA [r2_376_JUSTAS], SAGGSAGGSKDILANFPPGWKIEEEPNPNGMTRIDIKNPNGNEHRMEFPVNGKPIKFTIKPPESAGGSAGGS [r20_50_TrROS]

Folding stability dG unfold, -0.316 ± 0.52 kcal/mol:
SNFYFTIEIERPDPNGEEKKIEITIPMERINQELQEEHGMESPQEAQEYFAKEIAEKFDENGYKVKIEPFSA [r9_868_TrROS]
